The values below come from PMC8049743, “Discovery and characterization of a novel family of prokaryotic nanocompartments involved in sulfur metabolism” (eLife, 2021).

Series [1] has as its target T1, encapsulated CyD (CyD-loaded SrpI encapsulin) (Synechococcus elongatus, UniProt Q8KUU5).
T1 construct: E. coli; 1-2 CyD copies seen in difference map; with Type 2A encapsulin shell protein SrpI
T1 sequence (Q8KUU5 1-626): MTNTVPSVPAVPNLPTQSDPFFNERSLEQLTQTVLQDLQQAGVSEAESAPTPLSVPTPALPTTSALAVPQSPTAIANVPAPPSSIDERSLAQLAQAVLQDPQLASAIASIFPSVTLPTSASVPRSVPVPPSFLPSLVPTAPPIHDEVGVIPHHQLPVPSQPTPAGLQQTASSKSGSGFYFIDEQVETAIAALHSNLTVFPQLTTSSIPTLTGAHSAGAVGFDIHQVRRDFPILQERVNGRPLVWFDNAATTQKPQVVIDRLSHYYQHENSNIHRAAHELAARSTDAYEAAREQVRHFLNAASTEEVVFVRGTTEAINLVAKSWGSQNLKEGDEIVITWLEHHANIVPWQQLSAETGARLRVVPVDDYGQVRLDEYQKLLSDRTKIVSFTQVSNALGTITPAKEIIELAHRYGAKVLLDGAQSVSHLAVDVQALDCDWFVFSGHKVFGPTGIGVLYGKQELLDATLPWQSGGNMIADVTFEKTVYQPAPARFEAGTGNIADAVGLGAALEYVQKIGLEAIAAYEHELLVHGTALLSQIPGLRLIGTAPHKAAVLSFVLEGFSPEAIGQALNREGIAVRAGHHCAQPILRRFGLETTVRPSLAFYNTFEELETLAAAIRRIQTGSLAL
T1 sequence (Q55032 1-306 partner): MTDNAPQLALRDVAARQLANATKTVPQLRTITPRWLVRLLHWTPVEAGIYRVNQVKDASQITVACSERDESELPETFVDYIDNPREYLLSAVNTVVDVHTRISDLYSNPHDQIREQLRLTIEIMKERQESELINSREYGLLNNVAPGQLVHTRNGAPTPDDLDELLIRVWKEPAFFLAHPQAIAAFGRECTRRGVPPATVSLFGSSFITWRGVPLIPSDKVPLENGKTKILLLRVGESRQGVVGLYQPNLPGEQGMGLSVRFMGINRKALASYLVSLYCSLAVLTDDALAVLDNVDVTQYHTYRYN
Kind of series: coupled alanine dehydrogenase assay, NADH fluorescence. The conditions noted are these: 25 mM Tris-HCl pH 8, 150 mM NaCl, 5 mM NAD+, 25 °C, 200 nM enzyme; CyD encapsulated in SrpI shell. Format: biochemical.

The target of series [2] is T2, CyD (cysteine desulfurase, unencapsulated) (Synechococcus elongatus, UniProt Q8KUU5).
T2 construct: full length incl; 225-residue N-terminal domain; N-terminal His-SUMO tag cut off; E. coli BL21(DE3) LOBSTR; 68 kDa; PLP enzyme
T2 sequence (Q8KUU5 1-626): T1 sequence (Q8KUU5 1-626)
Described as above. The format is biochemical. The conditions noted are these: 25 mM Tris-HCl pH 8, 150 mM NaCl, 5 mM NAD+, 25 °C, 200 nM enzyme.

In series [3] the target is T3, ΔNTD-CyD (unencapsulated) (Synechococcus elongatus, UniProt Q8KUU5).
T3 construct: N-terminal His-SUMO tag cut off; E. coli; 45 kDa
T3 sequence (Q8KUU5 226-626 limits assumed): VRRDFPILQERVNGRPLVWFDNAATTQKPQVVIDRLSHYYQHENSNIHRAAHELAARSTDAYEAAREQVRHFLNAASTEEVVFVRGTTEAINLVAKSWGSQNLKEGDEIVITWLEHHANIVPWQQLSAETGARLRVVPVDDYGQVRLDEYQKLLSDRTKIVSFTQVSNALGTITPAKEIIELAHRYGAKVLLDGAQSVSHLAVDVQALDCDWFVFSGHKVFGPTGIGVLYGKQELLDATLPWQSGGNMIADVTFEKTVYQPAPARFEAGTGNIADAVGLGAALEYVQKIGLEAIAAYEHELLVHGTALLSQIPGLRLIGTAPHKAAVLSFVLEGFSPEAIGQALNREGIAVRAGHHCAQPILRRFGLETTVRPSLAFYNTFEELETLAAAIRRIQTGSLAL
Described as above. The note with it: 25 mM Tris-HCl pH 8, 150 mM NaCl, 5 mM NAD+, 25 °C, 200 nM enzyme. Format: biochemical.

Series [4] has as its target SrpI encapsulin shell protein with C-terminal 6X-His tag, from inclusion bodies, refolded (Synechococcus elongatus PCC 7942) (UniProt Q55032). Kind of series: negative stain TEM; apo-SrpI and holo-SrpI (CyD loaded by refolding) at 300 nM in 50 mM CAPS pH 10, 250 mM arginine, 150 mM NaCl; uranyl formate; 3D reconstruction without symmetry, ~18 Å; difference map.
For series [5], the target named is T4, SrpI encapsulin shell protein with C-terminal 6X-His tag, from inclusion bodies, refolded (Synechococcus elongatus (strain ATCC …, UniProt Q55032)).
T4 chain: T1 sequence (Q55032 1-306 partner)
In words: in vitro cargo loading (co-refolding), SEC co-elution and SDS-PAGE/sfGFP fluorescence; shell unfolded in GuHCl and refolded by dilution in the presence of cargo (encapsulation; CAPS pH 10, 250 mM arginine, glycerol, DTT); NTD fused to sfGFP.

Series [6] deals with the molecule itself. In words: non-denaturing SDS-PAGE; purified encapsulin, samples not heat-denatured compared with samples heated at 95°C for 15 min.
Series [7] concerns the molecule itself. Kind of series: cryo-EM structure; purified holo-SrpI, 2 mg/mL in 50 mM CAPS pH 10, 250 mM arginine, 150 mM NaCl, 0.05% NP-40; 2.2 Å; symmetry expansion and focused classification for cargo density.

On to `N[C@@H](CS)C(=O)O` [L-cysteine], for which the “coupled alanine dehydrogenase assay, NADH fluorescence” value is on record as “the encapsulated CyD was roughly sevenfold more active than unencapsulated CyD” in series [1], “Unencapsulated CyD was active towards a cysteine substrate” in series [2] and “the N-terminal domain had no effect on catalytic activity” in series [3].

Molecule “Full-length cysteine desulfurase CyD (Synpcc7942_B2661), purified (enzyme)” registered a copies of CyD in the difference density of the loaded compartment in series [4] of 1 to 2 copies.

B1: CyD N-terminal domain (residues 1–225) fused to sfGFP (protein)
chain: MTNTVPSVPAVPNLPTQSDPFFNERSLEQLTQTVLQDLQQAGVSEAESAPTPLSVPTPALPTTSALAVPQSPTAIANVPAPPSSIDERSLAQLAQAVLQDPQLASAIASIFPSVTLPTSASVPRSVPVPPSFLPSLVPTAPPIHDEVGVIPHHQLPVPSQPTPAGLQQTASSKSGSGFYFIDEQVETAIAALHSNLTVFPQLTTSSIPTLTGAHSAGAVGFDIHQ
With B1, the binding result in series [5] is reported as “binds”.

B2: Thermotoga maritima Family 1 encapsulin shell protein (natural protein)
chain: MEFLKRSFAPLTEKQWQEIDNRAREIFKTQLYGRKFVDVEGPYGWEYAAHPLGEVEVLSDENEVVKWGLRKSLPLIELRATFTLDLWELDNLERGKPNVDLSSLEETVRKVAEFEDEVIFRGCEKSGVKGLLSFEERKIECGSTPKDLLEAIVRALSIFSKDGIEGPYTLVINTDRWINFLKEEAGHYPLEKRVEECLRGGKIITTPRIEDALVVSERGGDFKLILGQDLSIGYEDREKDAVRLFITETFTFQVVNPEALILLKF
notes: Family 1 encapsulin shell protein, Thermotoga maritima; also called Tm Enc; T. maritima encapsulin; source: purified
With B2, the binding result in series [6] is “binds”.

B3: SrpI encapsulin shell protein with C-terminal 6X-His tag, from inclusion bodies, refolded (natural protein, Synechococcus elongatus PCC 7942)
chain: T1 sequence (Q55032 1-306 partner)
notes: monomer 35 kDa; T = 1 icosahedral capsid of 60 subunits by cryo-EM; also called apo-SrpI; holo-SrpI (when loaded with CyD); copies: 60
By stoichiometry N is commonly meant the number of molecules, sites or subunits per partner or assembly. For B3, the “stoichiometry N” value in series [7] was found to be 60 subunits.
